This note sets out measurements from a protein production outcome set (Wang et al. 2014).

This data set can be described thus: label from the status in PepcDB records.
Turning to “ECPAVVAVVARGSEQNLQIRPARYSEESPWTSNGFEEKNFRSFFGRMEKHYRESTGESLMKDVYVMGLNNIEYPASLPLSSEGSSAIELGTSISSGRDNVISAIDRFESATGCTPKYLLAGYSQGVLIVDGYEEELIARDQYLGTLHIANPAQQVDDPTLVGHEVTTGGLASSVEPVEDNPFKVSYCLPGDIVCDRSFEQFSAAGSSIAAAQLSTGNIRPGRVHVQYFVTTQPWDEQIFDEVASWIEAA”, the protein production entry is “failed”.

For “EDDYYYPSVKLEFVTVKAGTDGSIQTLIPDNGEALTVSKDRTGSAISPNTSRRVMSNYETLSNGHTATAVIYSLQSLVTPTPKPADDPTYRDGLKHDPVDVVSIWLGRGYLNMILNLKVNGGKQHVFGIVEDLSEFETNGTVNMLLYHDANGDEEYYNRRAYLSVPLDKYADAENPGQKITIKFKYYTYDKDGTAIESGKYCNPGFEYVPDKN”, the protein production result was “not failed”. Consider “EDRNFVYLKRQVPMDVADKIKQMALPGIHQQPESRRYYPEGEVTAHIVGFNNVEDQGQEGVELTFNQQLSGQPGSRRVIKDRLGRVIEDVQAVTLPVDGRDLRLSID”, for which the protein production entry is on record as “failed”.

In the case of “EELQALVDNIPAAIYHLDVSGQATIRFRPPAFLKTLVSEHAGTTRLNTLSMIHHDDRHMLSNAYSKLREAKHSLTLVYRIVTPEGKLHWIEDHMRSSFSDDGLFSGIDGILCEVT”, the protein production result is listed as “not failed”. The same measure for “EGLDYLTAPNPPSIREELCTASHDTITVHWISDDEFSISSYELQYTIFTGQANFISLYNSVDSWMIVPNIKQNHYTVHGLQSGTRYIFIVKAINQAGSRNSEPTRLKTNSQPFK”: “not failed”; for “EHIVPSNQQQIVRVLRTPGNNLHEVETAQGQRFLVSMPSKYRKNIWIKRGDFLIVDPIEEGEKVKAEISFVLCKDHVRSLQKEGFWPEAFSEVAEKHN”: “not failed”; for “EIHHRKPHGPEAALENVDAKIAKLMGEGYAFEEVKRALEIAQNNVEVARSILREFAFPPPVSPRLNL”: “failed”. With “EKAVLIGEKEADITFVTWGSQKGPILDVIEDLKEEGISANLLYLKMFSPFPTEFVKNVLSSANLVIDVESNYTAQAAQMIKLYTGIDIKNKILKYNGRHMTEDEILKSAKEILNK”, the protein production result is given as “not failed”. The same measure for “EKKEGHFSALPSLPVGSHAKVSSPQPRGPRYAEGTFISDYSIAMDKIHQQDFVNWLLAQKGKKNDWKHNITQREARALELASQANRKEEEAVEPQSSPAKNPSDEDLLRDLLIQELLACLLDQTNLCRLRSR”: “failed”. Turning to “ELCNALADKISLKDRFGFSLYIALFDKVSSLGSGSDHVMDAISQCEQYAKEQGAQERNAPWRLFFRKEVFTPWHSPSEDNVATNLIYQQVVRGVKFGEYRCEKEDDLAELASQQYFVDYGSEMILERLLNLVPTYIPDREITPLKTLEKWAQLAIAAHKKGIYAQRRTDAQKVKEDVVSYARFKWPLLFSRFYEAYKFSGPSLPKNDVIVAVNWTGVYFVDEQEQVLLELSFPEIMAVSSSRECRVWLSLGCSDLGCAAPHSGWAGLTPAGPCSPCWSCRGAKTTAPSFTLATIKGDEYTFTSSNAEDIRDLVVTFLEGLRKRSKYVVALQDNPNPAGEESGFLSFAKGDLIILDHDTGEQVMNSGWANGINERTKQRGDFPTDCVYVMPTVTMPPREIVALVTMTPDQRQDVVRLLQLRTAEPEVRAKPYTLEEFSYDYFRPPPKHTLSRVMVSKARGKDRLWSHTREPLKQA”, the protein production entry is given as “failed”. The same measure for “ELEHQISGTSKEALLDDIRSLIDSASYTYIRQREMKGLGHAILTGRELVGDEPFAVVLADDLCVNEEQGVLAQMVELYKQFRCSIVAVQEVPETETHKYGVIAGEMIKDDIFRIDNMVEKPEPGTAPSNLAIIGRYILTPDIFELIENTEPGKGGEIQITDALMQQAQSGCVIAYKFKGQRFDCGSVEGYIEATNYCYENLYKKASSAELAKTPTVKVSEPA”: “failed”; for “ELLKSGKAKDRFEGEENAPVTIVEYASLTCVHCAHFYNDVLPQIRKKYIKTGKVKLIFRDFAFDSRATAGFMLARCAPEDRYFPLIEVLFQKQSEWVWARDAVTPLKKIGLMAGFTDESFNACLKNQSILDEVNASFERGKELGVNATPTFFINGNKYEGAMSVEAFFSVIDSFLKN”: “not failed”.
